Here are results for one molecule from patent CN113735969A (INST MILITARY MEDICINE ACADEMY MILITARY SCIENCES PLA, dated 2021).

One test deals with SARS-CoV-2 WT RBD蛋白 (SARS-CoV-2, UniProt P0DTC2 319-541).
The next test has as its target SARS-CoV-2野生型病毒的S蛋白 (SARS-CoV-2, UniProt P0DTC2 14-1273). The test can be described thus: cell-based or functional assay.

B1: 全人源抗SARS-CoV-2单克隆抗体ZWD12 (antibody, V domains shown)
VH: EVQLVESGGGLVQPGGTLRLSCVASGFSFSNYWMSWVRQAPGKGLEWVANIKQDGSETHYVDSVKGRFTISRDNAKNSLYLQMNSLRADDTAVYFCVKDRTDWELIRGYFGHWGQGTQITVSS
VL: DIVMTQTPSSLSLSPGDRATLSCRASENIINYLAWYQQRPGQSPRLLIYDASNRATGIPARFSGSGSGTDFTLTISSLEPEDFAVYYCQQRIIWPPYTFGQGTKVDIKR
Broadly, the Kd is the free concentration of one partner at which half of the binding sites on the other are occupied at equilibrium, for simple one-to-one binding. Read a low Kd as a tighter complex. The koff is the first-order rate constant of dissociation. As usually defined, the kon is the second-order rate constant of association. Lower therefore signals slow association. As for B1, in the test with SARS-CoV-2 WT RBD蛋白, the Kd is 0.356 nM, the koff worked out at 0.000167 s⁻¹ and the kon amounted to 468000 M⁻¹ s⁻¹. Further, in the test with SARS-CoV-2野生型病毒的S蛋白, the “假病毒中和 EC50 (luciferase, HEK293T cells)” value turned out to be 0.00586 µg/mL and the “真病毒中和 EC50 (Vero E6 cells, crystal violet)” value turned out to be 0.103 µg/mL.
